binding, binding result and Kd data for twelve molecules are collected here from publication PMC7971322, “Insights into the mechanism regulating the differential expression of the P28-OMP outer membrane proteins in obligatory intracellular pathogen Ehrlichia chaffeensis”.

By Kd is commonly meant the concentration at which binding is half-saturated.

Data set [1] has as its target T1, rTr1 (Ehrlichia chaffeensis) (UniProt Q2GF81).
T1 sequence: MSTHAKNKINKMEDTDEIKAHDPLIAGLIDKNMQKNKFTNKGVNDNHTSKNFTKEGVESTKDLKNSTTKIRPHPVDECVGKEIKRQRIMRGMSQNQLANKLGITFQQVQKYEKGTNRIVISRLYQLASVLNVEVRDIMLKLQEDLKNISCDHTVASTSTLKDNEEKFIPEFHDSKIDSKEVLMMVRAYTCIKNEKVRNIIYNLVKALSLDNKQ
Nature of the data set: DNase I footprinting. The conditions noted are these: EMSA/footprint: 10 mM Tris-HCl pH 7.5, 100 mM NaCl, 1 mM DTT, 10% glycerol, 25 C, SPR: 10 mM Tris-HCl pH 7.5, 100 mM NaCl, 0.05% Tween 20, 25 C.

Data set [2] deals with T1, rTr1 (Ehrlichia chaffeensis). Nature of the data set: EMSA. The conditions noted are these: EMSA/footprint: 10 mM Tris-HCl pH 7.5, 100 mM NaCl, 1 mM DTT, 10% glycerol, 25 C, SPR: 10 mM Tris-HCl pH 7.5, 100 mM NaCl, 0.05% Tween 20, 25 C.
Data set [3] concerns the target T2, rEcxR (Ehrlichia chaffeensis) (UniProt Q2GG40).
T2 sequence: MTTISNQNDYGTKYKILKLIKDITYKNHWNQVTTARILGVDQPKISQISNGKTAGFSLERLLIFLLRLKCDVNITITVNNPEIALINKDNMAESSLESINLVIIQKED
Put plainly: EMSA. The conditions noted are these: EMSA/footprint: 10 mM Tris-HCl pH 7.5, 100 mM NaCl, 1 mM DTT, 10% glycerol, 25 C, SPR: 10 mM Tris-HCl pH 7.5, 100 mM NaCl, 0.05% Tween 20, 25 C. Background: Mobility shift assays separate free from complexed probe on a gel.

The target in another data set is T3, rEcxR (Ehrlichia chaffeensis, UniProt Q2GG40 1-108).
T3 sequence: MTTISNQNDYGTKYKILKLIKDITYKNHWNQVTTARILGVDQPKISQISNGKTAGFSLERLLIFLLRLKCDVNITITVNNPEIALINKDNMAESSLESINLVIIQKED
Nature of the data set: SPR; EMSA/footprint: 10 mM Tris-HCl pH 7.5, 100 mM NaCl, 1 mM DTT, 10% glycerol, 25 C; SPR: 10 mM Tris-HCl pH 7.5, 100 mM NaCl, 1 mM DTT, 0.05% Tween 20, 25 C. The conditions noted are these: protein: recombinant, tags: C-terminal His (pET-29a), chain copies: 2, none in plain EMSA.

For data set [4], the target named is T4, rTr1 (Ehrlichia chaffeensis, UniProt Q2GF81 1-213).
T4 sequence: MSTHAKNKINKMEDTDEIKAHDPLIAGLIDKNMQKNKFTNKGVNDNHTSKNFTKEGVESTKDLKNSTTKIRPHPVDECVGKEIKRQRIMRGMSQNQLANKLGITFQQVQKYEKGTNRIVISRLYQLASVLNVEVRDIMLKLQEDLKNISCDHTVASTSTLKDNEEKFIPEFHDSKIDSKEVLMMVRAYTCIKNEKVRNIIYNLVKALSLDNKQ
Described as above. Conditions: protein: recombinant, tags: N-terminal His (pET-33b), chain copies: 2.

Data set [5] has as its target T4, rTr1. Nature of the data set: competition; 50-fold unlabelled vs biotinylated region II, 1 uM rTr1; EMSA/footprint: 10 mM Tris-HCl pH 7.5, 100 mM NaCl, 1 mM DTT, 10% glycerol, 25 C; SPR: 10 mM Tris-HCl pH 7.5, 100 mM NaCl, 1 mM DTT, 0.05% Tween 20, 25 C. Conditions: protein: recombinant; tags: N-terminal His (pET-33b); chain copies: 2; blunt.
Data set [6] has as its target T4, rTr1. Put plainly: competition; 50-fold unlabelled vs biotinylated region I, 1 uM rTr1; EMSA/footprint: 10 mM Tris-HCl pH 7.5, 100 mM NaCl, 1 mM DTT, 10% glycerol, 25 C; SPR: 10 mM Tris-HCl pH 7.5, 100 mM NaCl, 1 mM DTT, 0.05% Tween 20, 25 C. The conditions noted are these: protein: recombinant; tags: N-terminal His (pET-33b); chain copies: 2; blunt.
Data set [7] addresses T4, rTr1. Put plainly: EMSA; 1.8 uM rTr1; EMSA/footprint: 10 mM Tris-HCl pH 7.5, 100 mM NaCl, 1 mM DTT, 10% glycerol, 25 C; SPR: 10 mM Tris-HCl pH 7.5, 100 mM NaCl, 1 mM DTT, 0.05% Tween 20, 25 C. The conditions noted are these: protein: recombinant; tags: N-terminal His (pET-33b); chain copies: 2; blunt.

Consider “ATGATATCAATGCACTTGTTATGAAAACTTTTTTGTAATTCATATATAACCTAATAGTGACAAATAAATTAACAATAGTAGAAGTGTCATATAAAAGCAAGTCAGAATATAAATTTTTGTATAAAATATCGGTAACTTTTGTAAGGAAAATTTAATATATTACGTCAGGTAAGTAATAGCAAAAAAACTGGTTAAGTATAGTATCATGTGTAAAGGTGAGAAAAACAGCACTTATA (double strand) [p28 promoter footprint fragment]”, for which the binding result in data set [1] is given as “binds”.

“CCTATAACAAAGCAACCTATGTAAGATAAATCATGCATAAAGTGAATGCAATAGTTATTTAATGGATATATTCTATCTAGTTTGCTGGAATAGTATACTAATTATATAATATACAGAAATAACATATTATGCTTTATGAAATATAAGATAAAATTTATTTACTTTTTAGCTTGATTGGATCAATAATTTATATTAAACATGAAAGTCAGTTTGTCCGGGT (double strand) [tr1 promoter EMSA probe]”: the binding result in data set [2] and in data set [3] was “binds” throughout.

“CCTATAACAAAGCAACCTATGTAAGATAAATCATGCATAAAGTGAATGCAATAGTTATTTAATGGATATATTCTATCTAGTTTGCTGGAATAGTATACTAATTATATAATATACAGAAATAACATATTATGCTTTATGAAATATAAGATAAAATTTATTTACTTTTTAGCTTGATTGGATCAATAATTTATATTAAACATGAAAGTCAGTTTGTCCGGGT (double strand) [tr1 promoter footprint fragment]”: in data set [1], the binding result is “binds”.

Consider “GAATTTGTGATTTGAAATAACAAGACTTAAATGTCGAATTTAGCTTCTGTCCTAGTGGATAAGTACTTTAGCAAGTGGTAAAAGCAAGTCTACTCATATTTTTATTAATTAAGTAGTAAAGTTAACTATAGATTTTATTAAAATTTTTATTCTAATCACTTTAAATATCAATTACTTTTGTTGTAAATTTGAAAGAAATTTTATATTCTAGACTTGCTTTTCTTTATTTCTTTCATTATTCTTAAATTTTTATTATCTTTTATAAAAGGTTTATTAAC (double strand) [omp-1B promoter EMSA probe]”, for which the binding entry in data set [2] and in data set [3] was “binds” throughout.

Regarding “GAATTTGTGATTTGAAATAACAAGACTTAAATGTCGAATTTAGCTTCTGTCCTAGTGGATAAGTACTTTAGCAAGTGGTAAAAGCAAGTCTACTCATATTTTTATTAATTAAGTAGTAAAGTTAACTATAGATTTTATTAAAATTTTTATTCTAATCACTTTAAATATCAATTACTTTTGTTGTAAATTTGAAAGAAATTTTATATTCTAGACTTGCTTTTCTTTATTTCTTTCATTATTCTTAAATTTTTATTATCTTTTATAAAAGGTTTATTAAC (double strand) [omp-1B promoter footprint fragment]”, the binding entry in data set [1] is “binds”.

For “GTGATAGGGAATGAATTCAGAGATATTCCTGCTATGATACCCAGTACCTCAACTCTCACAGGTAATCACTTTACTATAGTAACACTAAGTGTATGCCACTTTGGAGTGGAACTTGGAGGAAGGTTTAACTTTTAATTTTATTATTGCCACATGTTAAAAATAATCTAAACTTGTTTTTATTATTGCTGCAGGTAAATAAAAATAGTGGCAAAAGAATGTAGCAATAAGAGGGGGGGGGGGGGGACTAGTTTATAAGTGCTGTTTTTCTCACCTTTA (double strand) [p28 II footprint fragment]”, the binding entry in data set [1] is recorded as “binds”.

B1: Tr1 protected region II (omp-1B promoter) (dsDNA)
DNA 1: AGTAAAGTTAACTATAGATTTTATTAAAATTTTTATTCTAATCACTTTAA
DNA 2: TTAAAGTGATTAGAATAAAAATTTTAATAAAATCTATAGTTAACTTTACT
As for B1, the binding result with rEcxR (blunt) is “no binding”. Further, the Kd in the data set with rTr1 [4] (none in plain EMSA, blunt) stood at 15.5 nM.

B2: Tr1 protected region II, mutated motif (dsDNA)
DNA 1: AGTAAAGTTAGGGGGGGATTTTATTAAAATTTTTATTCTAATCACTTTAA
DNA 2: TTAAAGTGATTAGAATAAAAATTTTAATAAAATCCCCCCCTAACTTTACT
In the case of B2, the binding result in the data set with rTr1 [5] was “no binding”.

B3: Tr1 protected region I (p28 promoter) (dsDNA)
DNA 1: TACACATGATACTATACTTAACCAGTTTTTTTGCTATTACTTACCTGACG
DNA 2: CGTCAGGTAAGTAATAGCAAAAAAACTGGTTAAGTATAGTATCATGT
For the molecule B3, the binding result in the data set with rEcxR (5' overhang 3 nt on strand 1 (reverse oligo as printed is 47 nt)) was “no binding”. For the same molecule, the dissociation constant Kd with rTr1 [4] (none in plain EMSA, 5' overhang 3 nt on strand 1 (reverse oligo as printed is 47 nt)) came to 2.52 nM.

B4: Tr1 protected region I, mutated motif (dsDNA)
DNA 1: TACACATGATGGGGGGCTTAACCAGTTTTTTTGCTATTACTTACCTGACG
DNA 2: CGTCAGGTAAGTAATAGCAAAAAAACTGGTTAAGCCCCCCATCATGTGTA
Take B4: the binding result with rTr1 [6] is recorded as “no binding”.

B5: Tr1 protected region III (tr1 promoter) (dsDNA)
DNA 1: TAAAGCATAATATGTTATTTCTGTATATTATATAAT
DNA 2: ATTATATAATATACAGAAATAACATATTATGCTTTA
In the case of B5, the binding result with rTr1 [7] is given as “binds”.

B6: Tr1 protected region IV (upstream of p28) (dsDNA)
DNA 1: TAATCACTTTACTATAGTAACACTAAGTGTATGCCACTTTGGAGTGGAAC
DNA 2: GTTCCACTCCAAAGTGGCATACACTTAGTGTTACTATAGTAAAGTGATTA
As for B6, in the data set with rTr1 [4] (label: biotin for SPR (note on S35), blunt), the Kd was 14 nM.
